Numbered stars: 1 amine (or outer) side, 2 acyl side, 3 side chain; on linkers, the order of the positions; unused ones are H or OH. Bridge positions count the residues as written; N and C are the ends. Side chains are listed from the residue outwards. Ends that are not written are not given here. * marks the point of attachment. C20 diacid = O=C(O)CCCCCCCCCCCCCCCCCCC(=O)*; γGlu = O=C(O)[C@H](CCC(=O)[*:2])N[*:1]; AEEA = NCCOCCOCC(=O)O

Sequences and labels used below:
T1: human amylin receptor (amylin 3(a) receptor: human calcitonin receptor co-expressed with RAMP-3) (human, UniProt P30988 25-474; O60896 24-148, limits assumed)
T1 sequence (looked up) 1: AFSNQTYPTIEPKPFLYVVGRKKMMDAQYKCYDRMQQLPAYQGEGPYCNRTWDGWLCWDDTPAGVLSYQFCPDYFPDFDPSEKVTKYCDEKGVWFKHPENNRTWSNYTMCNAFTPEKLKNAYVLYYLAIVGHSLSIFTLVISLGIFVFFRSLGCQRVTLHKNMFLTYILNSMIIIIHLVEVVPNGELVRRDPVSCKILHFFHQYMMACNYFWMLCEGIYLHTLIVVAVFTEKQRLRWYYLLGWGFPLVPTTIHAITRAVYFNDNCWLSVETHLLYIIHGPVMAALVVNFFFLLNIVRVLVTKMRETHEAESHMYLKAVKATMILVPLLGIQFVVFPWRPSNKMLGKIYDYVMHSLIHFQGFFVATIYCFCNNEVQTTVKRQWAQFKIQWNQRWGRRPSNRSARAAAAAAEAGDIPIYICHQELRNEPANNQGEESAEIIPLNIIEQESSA
T1 sequence (looked up) 2: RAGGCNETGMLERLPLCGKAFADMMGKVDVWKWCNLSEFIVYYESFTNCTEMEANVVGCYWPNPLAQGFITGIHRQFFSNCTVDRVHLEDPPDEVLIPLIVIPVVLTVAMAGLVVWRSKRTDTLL

T2: human calcitonin receptor (human, UniProt P30988 25-474)
T2 sequence (looked up): T1 sequence (looked up) 1

B1: N^ε1-[2-[2-[2-[[(4S)-4-carboxy-4-(19-carboxynonadecanoylamino)butanoyl]amino]ethoxy]ethoxy]acetyl]-[Ser14,Arg17,Pro21,Pro27,Pro31]-h-amylin (peptide)
peptide: K([AEEA-γGlu-C20 diacid])CNTATCATQRLASFLRHSSPNFGAIPSSTPVGSNTY-NH2
modifications: disulfide 2-7; N-terminus assumed
SMILES: CC[C@H](C)[C@H](NC(=O)[C@H](C)NC(=O)CNC(=O)[C@H](Cc1ccccc1)NC(=O)[C@H](CC(N)=O)NC(=O)[C@@H]1CCCN1C(=O)[C@H](CO)NC(=O)[C@H](CO)NC(=O)[C@H](Cc1c[nH]cn1)NC(=O)[C@H](CCCNC(=N)N)NC(=O)[C@H](CC(C)C)NC(=O)[C@H](Cc1ccccc1)NC(=O)[C@H](CO)NC(=O)[C@H](C)NC(=O)[C@H](CC(C)C)NC(=O)[C@H](CCCNC(=N)N)NC(=O)[C@H](CCC(N)=O)NC(=O)[C@@H](NC(=O)[C@H](C)NC(=O)[C@@H]1CSSC[C@H](NC(=O)[C@@H](N)CCCCNC(=O)COCCOCCNC(=O)CC[C@H](NC(=O)CCCCCCCCCCCCCCCCCCC(=O)O)C(=O)O)C(=O)N[C@@H](CC(N)=O)C(=O)N[C@@H]([C@@H](C)O)C(=O)N[C@@H](C)C(=O)N[C@@H]([C@@H](C)O)C(=O)N1)[C@@H](C)O)C(=O)N1CCC[C@H]1C(=O)N[C@@H](CO)C(=O)N[C@@H](CO)C(=O)N[C@H](C(=O)N1CCC[C@H]1C(=O)N[C@H](C(=O)NCC(=O)N[C@@H](CO)C(=O)N[C@@H](CC(N)=O)C(=O)N[C@H](C(=O)N[C@@H](Cc1ccc(O)cc1)C(N)=O)[C@@H](C)O)C(C)C)[C@@H](C)O
notes: also called compound 73
B2: N^ε1-[(4S)-4-carboxy-4-(19-carboxynonadecanoylamino)butanoyl]-[Ala14,Arg17,Pro21,Pro27,His34]-h-amylin (peptide)
peptide: K([γGlu-C20 diacid])CNTATCATQRLAAFLRHSSPNFGAIPSSTNVGHNTY-NH2
modifications: disulfide 2-7; N-terminus assumed
SMILES: CC[C@H](C)[C@H](NC(=O)[C@H](C)NC(=O)CNC(=O)[C@H](Cc1ccccc1)NC(=O)[C@H](CC(N)=O)NC(=O)[C@@H]1CCCN1C(=O)[C@H](CO)NC(=O)[C@H](CO)NC(=O)[C@H](Cc1c[nH]cn1)NC(=O)[C@H](CCCNC(=N)N)NC(=O)[C@H](CC(C)C)NC(=O)[C@H](Cc1ccccc1)NC(=O)[C@H](C)NC(=O)[C@H](C)NC(=O)[C@H](CC(C)C)NC(=O)[C@H](CCCNC(=N)N)NC(=O)[C@H](CCC(N)=O)NC(=O)[C@@H](NC(=O)[C@H](C)NC(=O)[C@@H]1CSSC[C@H](NC(=O)[C@@H](N)CCCCNC(=O)CC[C@H](NC(=O)CCCCCCCCCCCCCCCCCCC(=O)O)C(=O)O)C(=O)N[C@@H](CC(N)=O)C(=O)N[C@@H]([C@@H](C)O)C(=O)N[C@@H](C)C(=O)N[C@@H]([C@@H](C)O)C(=O)N1)[C@@H](C)O)C(=O)N1CCC[C@H]1C(=O)N[C@@H](CO)C(=O)N[C@@H](CO)C(=O)N[C@H](C(=O)N[C@@H](CC(N)=O)C(=O)N[C@H](C(=O)NCC(=O)N[C@@H](Cc1c[nH]cn1)C(=O)N[C@@H](CC(N)=O)C(=O)N[C@H](C(=O)N[C@@H](Cc1ccc(O)cc1)C(N)=O)[C@@H](C)O)C(C)C)[C@@H](C)O
notes: also called compound 93
B3: N^ε1-[2-[2-[2-[[(4S)-4-carboxy-4-(19-carboxynonadecanoylamino)butanoyl]amino]ethoxy]ethoxy]acetyl]-[Thr14,Arg17,Pro21,Pro27,Pro31]-h-amylin (peptide)
peptide: K([AEEA-γGlu-C20 diacid])CNTATCATQRLATFLRHSSPNFGAIPSSTPVGSNTY-NH2
modifications: disulfide 2-7; N-terminus assumed
SMILES: CC[C@H](C)[C@H](NC(=O)[C@H](C)NC(=O)CNC(=O)[C@H](Cc1ccccc1)NC(=O)[C@H](CC(N)=O)NC(=O)[C@@H]1CCCN1C(=O)[C@H](CO)NC(=O)[C@H](CO)NC(=O)[C@H](Cc1c[nH]cn1)NC(=O)[C@H](CCCNC(=N)N)NC(=O)[C@H](CC(C)C)NC(=O)[C@H](Cc1ccccc1)NC(=O)[C@@H](NC(=O)[C@H](C)NC(=O)[C@H](CC(C)C)NC(=O)[C@H](CCCNC(=N)N)NC(=O)[C@H](CCC(N)=O)NC(=O)[C@@H](NC(=O)[C@H](C)NC(=O)[C@@H]1CSSC[C@H](NC(=O)[C@@H](N)CCCCNC(=O)COCCOCCNC(=O)CC[C@H](NC(=O)CCCCCCCCCCCCCCCCCCC(=O)O)C(=O)O)C(=O)N[C@@H](CC(N)=O)C(=O)N[C@@H]([C@@H](C)O)C(=O)N[C@@H](C)C(=O)N[C@@H]([C@@H](C)O)C(=O)N1)[C@@H](C)O)[C@@H](C)O)C(=O)N1CCC[C@H]1C(=O)N[C@@H](CO)C(=O)N[C@@H](CO)C(=O)N[C@H](C(=O)N1CCC[C@H]1C(=O)N[C@H](C(=O)NCC(=O)N[C@@H](CO)C(=O)N[C@@H](CC(N)=O)C(=O)N[C@H](C(=O)N[C@@H](Cc1ccc(O)cc1)C(N)=O)[C@@H](C)O)C(C)C)[C@@H](C)O
notes: also called compound 75
B4: N^ε1-[(4S)-4-carboxy-4-(19-carboxynonadecanoylamino)butanoyl]-[Arg14,Arg17,Pro21,Pro27,Pro31]-h-amylin (peptide)
peptide: K([γGlu-C20 diacid])CNTATCATQRLARFLRHSSPNFGAIPSSTPVGSNTY-NH2
modifications: disulfide 2-7; N-terminus assumed
SMILES: CC[C@H](C)[C@H](NC(=O)[C@H](C)NC(=O)CNC(=O)[C@H](Cc1ccccc1)NC(=O)[C@H](CC(N)=O)NC(=O)[C@@H]1CCCN1C(=O)[C@H](CO)NC(=O)[C@H](CO)NC(=O)[C@H](Cc1c[nH]cn1)NC(=O)[C@H](CCCNC(=N)N)NC(=O)[C@H](CC(C)C)NC(=O)[C@H](Cc1ccccc1)NC(=O)[C@H](CCCNC(=N)N)NC(=O)[C@H](C)NC(=O)[C@H](CC(C)C)NC(=O)[C@H](CCCNC(=N)N)NC(=O)[C@H](CCC(N)=O)NC(=O)[C@@H](NC(=O)[C@H](C)NC(=O)[C@@H]1CSSC[C@H](NC(=O)[C@@H](N)CCCCNC(=O)CC[C@H](NC(=O)CCCCCCCCCCCCCCCCCCC(=O)O)C(=O)O)C(=O)N[C@@H](CC(N)=O)C(=O)N[C@@H]([C@@H](C)O)C(=O)N[C@@H](C)C(=O)N[C@@H]([C@@H](C)O)C(=O)N1)[C@@H](C)O)C(=O)N1CCC[C@H]1C(=O)N[C@@H](CO)C(=O)N[C@@H](CO)C(=O)N[C@H](C(=O)N1CCC[C@H]1C(=O)N[C@H](C(=O)NCC(=O)N[C@@H](CO)C(=O)N[C@@H](CC(N)=O)C(=O)N[C@H](C(=O)N[C@@H](Cc1ccc(O)cc1)C(N)=O)[C@@H](C)O)C(C)C)[C@@H](C)O
notes: also called compound 63
B5: N^ε1-[(4S)-4-carboxy-4-(19-carboxynonadecanoylamino)butanoyl]-[Arg14,Arg17,Pro21,Pro27,Pro34]-h-amylin (peptide)
peptide: K([γGlu-C20 diacid])CNTATCATQRLARFLRHSSPNFGAIPSSTNVGPNTY-NH2
modifications: disulfide 2-7; N-terminus assumed
SMILES: CC[C@H](C)[C@H](NC(=O)[C@H](C)NC(=O)CNC(=O)[C@H](Cc1ccccc1)NC(=O)[C@H](CC(N)=O)NC(=O)[C@@H]1CCCN1C(=O)[C@H](CO)NC(=O)[C@H](CO)NC(=O)[C@H](Cc1c[nH]cn1)NC(=O)[C@H](CCCNC(=N)N)NC(=O)[C@H](CC(C)C)NC(=O)[C@H](Cc1ccccc1)NC(=O)[C@H](CCCNC(=N)N)NC(=O)[C@H](C)NC(=O)[C@H](CC(C)C)NC(=O)[C@H](CCCNC(=N)N)NC(=O)[C@H](CCC(N)=O)NC(=O)[C@@H](NC(=O)[C@H](C)NC(=O)[C@@H]1CSSC[C@H](NC(=O)[C@@H](N)CCCCNC(=O)CC[C@H](NC(=O)CCCCCCCCCCCCCCCCCCC(=O)O)C(=O)O)C(=O)N[C@@H](CC(N)=O)C(=O)N[C@@H]([C@@H](C)O)C(=O)N[C@@H](C)C(=O)N[C@@H]([C@@H](C)O)C(=O)N1)[C@@H](C)O)C(=O)N1CCC[C@H]1C(=O)N[C@@H](CO)C(=O)N[C@@H](CO)C(=O)N[C@H](C(=O)N[C@@H](CC(N)=O)C(=O)N[C@H](C(=O)NCC(=O)N1CCC[C@H]1C(=O)N[C@@H](CC(N)=O)C(=O)N[C@H](C(=O)N[C@@H](Cc1ccc(O)cc1)C(N)=O)[C@@H](C)O)C(C)C)[C@@H](C)O
notes: also called compound 65
B6: N^ε1-[(4S)-4-carboxy-4-(19-carboxynonadecanoylamino)butanoyl]-[Arg14,Arg17,Pro21,Pro27]-h-amylin (peptide)
peptide: K([γGlu-C20 diacid])CNTATCATQRLARFLRHSSPNFGAIPSSTNVGSNTY-NH2
modifications: disulfide 2-7; N-terminus assumed
SMILES: CC[C@H](C)[C@H](NC(=O)[C@H](C)NC(=O)CNC(=O)[C@H](Cc1ccccc1)NC(=O)[C@H](CC(N)=O)NC(=O)[C@@H]1CCCN1C(=O)[C@H](CO)NC(=O)[C@H](CO)NC(=O)[C@H](Cc1c[nH]cn1)NC(=O)[C@H](CCCNC(=N)N)NC(=O)[C@H](CC(C)C)NC(=O)[C@H](Cc1ccccc1)NC(=O)[C@H](CCCNC(=N)N)NC(=O)[C@H](C)NC(=O)[C@H](CC(C)C)NC(=O)[C@H](CCCNC(=N)N)NC(=O)[C@H](CCC(N)=O)NC(=O)[C@@H](NC(=O)[C@H](C)NC(=O)[C@@H]1CSSC[C@H](NC(=O)[C@@H](N)CCCCNC(=O)CC[C@H](NC(=O)CCCCCCCCCCCCCCCCCCC(=O)O)C(=O)O)C(=O)N[C@@H](CC(N)=O)C(=O)N[C@@H]([C@@H](C)O)C(=O)N[C@@H](C)C(=O)N[C@@H]([C@@H](C)O)C(=O)N1)[C@@H](C)O)C(=O)N1CCC[C@H]1C(=O)N[C@@H](CO)C(=O)N[C@@H](CO)C(=O)N[C@H](C(=O)N[C@@H](CC(N)=O)C(=O)N[C@H](C(=O)NCC(=O)N[C@@H](CO)C(=O)N[C@@H](CC(N)=O)C(=O)N[C@H](C(=O)N[C@@H](Cc1ccc(O)cc1)C(N)=O)[C@@H](C)O)C(C)C)[C@@H](C)O
notes: also called compound 83

One assay deals with T1, human amylin receptor (amylin 3(a) …). Briefly: cell-based or functional assay.
With B1, the “hAmylin-R funct. EC50” value was 0.085 nM.

As for B2, the “Ratio hCT/hAmylin funct.” value was 9.7 and the “hAmylin-R funct. EC50” value was 0.118 nM.

For the molecule B3, the “hAmylin-R funct. EC50” value was 0.296 nM.

In the case of B4, the “hAmylin-R funct. EC50” value stood at 0.037 nM.

With B5, the “hAmylin-R funct. EC50” value turned out to be 0.242 nM.

As for B6, the “Ratio hCT/hAmylin funct.” value turned out to be 41.6 and the “hAmylin-R funct. EC50” value came to 0.405 nM.

The next assay deals with T2, human calcitonin receptor. Briefly: cell-based or functional assay.
As to B1, the “hCTR funct. EC50” value stood at 0.961 nM.

On to B2, for which the “hCTR funct. EC50” value is 1.15 nM.

With B3, the “hCTR funct. EC50” value was 9.07 nM.

For the molecule B4, the “hCTR funct. EC50” value worked out at 5.13 nM.

As to B5, the “hCTR funct. EC50” value came out at 9.33 nM.

As to B6, the “hCTR funct. EC50” value came to 16.8 nM.

The values are drawn from US20140087995A1 (published 2014).
